Measurements reported in the supplement of paper PMC10567573.

B1: AUP1 (parent)
chain: FCASTRLPPTPLLLFPEEEATNGR

Variants of: B1
Assay: protein stability index of a GFP-peptide fusion (GPS, HEK-293T) (PSI 1-6); higher = more stable
Conditions: c terminus: a fixed tail appended
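Note: lentivirally expressed fusions sorted by FACS into six bins by GFP to DsRed ratio, PSI derived from sequencing read proportions per bin multiplied by bin number.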

| Variant | protein stability index |
| --- | --- |
| FCASTRLPPTPLLLFPEEEAMNGR | 2.46 |
| FCASTRLPPTPLLLFPEEEARNGR | 2.8 |
| FCASTRLPPTPLLLFPEEEAENGR | 3.68 |
| FCASTRLPPTPLLLFPEEEAKNGR | 3.09 |
| FCASTRLPPTPLLLFPEEEADNGR | 3.35 |
| FCASTRLPPTPLLLFPEEEANNGR | 3.15 |
| FCASTRLPPTPLLLFPEEEAVNGR | 2.7 |
| FCASTRLPPTPLLLFPEEEAGNGR | 2.68 |
| FCASTRLPPTPLLLFPEEEASNGR | 2.52 |
| FCASTRLPPTPLLLFPEEEAQNGR | 2.46 |
| FCASTRLPPTPLLLFPEEEAHNGR | 2.69 |
| FCASTRLPPTPLLLFPEEEAFNGR | 2.28 |
| FCASTRLPPTPLLLFPEEEAWNGR | 2.15 |
| FCASTRLPPTPLLLFPEEEAYNGR | 2.65 |
| FCASTRLPPTPLLLFPEEEAINGR | 2.79 |
| FCASTRLPPTPLLLFPEEEAANGR | 2.6 |
| FCASTRLPPTPLLLFPEEEACNGR | 3.05 |
| FCASTRLPPTPLLLFPEEEALNGR | 2.37 |
| FCASTRLPPTPLLLFPEEWATNGR | 1.87 |
| FCASTRLPPTPLLLFPEEYATNGR | 2.69 |
| FCASTRLPPTPLLLFPEETATNGR | 2.68 |
| FCASTRLPPTPLLLFPEEVATNGR | 2.33 |
| FCASTRLPPTPLLLFPEEEATNGH | 2.76 |
| FCASTRLPPTPLLLFPEEEATNGF | 2.39 |

| Variant | protein stability index |
| --- | --- |
| FCASTRLPPTPLLLFPEEEATNGY | 1.88 |
| FCASTRLPPTPLLLFPEEEATNGA | 3.27 |
| FCASTRLPPTPLLLFPEEEATNGV | 2.85 |
| FCASTRLPPTPLLLFPEEEATNGD | 3.3 |
| FCASTRLPPTPLLLFPEEEATNGS | 3.01 |
| FCASTRLPPTPLLLFPEEEATNGN | 3.01 |
| FCASTRLPPTPLLLFPEEEATNGK | 3.12 |
| FCASTRLPPTPLLLFPEEEATNGL | 2.09 |
| FCASTRLPPTPLLLFPEEEATNGI | 2.46 |
| FCASTRLPPTPLLLFPEEEATNGQ | 2.98 |
| FCASTRLPPTPLLLFPEEEATNGM | 2.38 |
| FCASTRLPPTPLLLFPEEEATNGP | 3 |
| FCASTRLPPTPLLLFPEEEATNGT | 3.24 |
| FCASTRLPPTPLLLFPEEEATNGE | 3.4 |
| FCASTRLPPTPLLLFPEEEATNGW | 1.34 |
| FCASTRLPPTPLLLFPEEEATNGC | 2.72 |
| FCASTRLPPTPLLLFPEEEATNGG | 3.69 |
| FCASTRLPPTPLLLFPEEEATNPR | 2.75 |
| FCASTRLPPTPLLLFPEEEATNTR | 2.76 |
| FCASTRLPPTPLLLFPEEEATNAR | 2.86 |
| FCASTRLPPTPLLLFPEEEATNHR | 2.82 |
| FCASTRLPPTPLLLFPEEEATNDR | 3.33 |
| FCASTRLPPTPLLLFPEEEATNVR | 2.91 |
| FCASTRLPPTPLLLFPEEEATNNR | 2.97 |

| Variant | protein stability index |
| --- | --- |
| FCASTRLPPTPLLLFPEEEATNMR | 2.54 |
| FCASTRLPPTPLLLFPEEEATNLR | 2.67 |
| FCASTRLPPTPLLLFPEEEATNWR | 1.69 |
| FCASTRLPPTPLLLFPEEEATNRR | 2.59 |
| FCASTRLPPTPLLLFPEEEATNCR | 2.65 |
| FCASTRLPPTPLLLFPEEEATNKR | 2.62 |
| FCASTRLPPTPLLLFPEEEATNIR | 2.19 |
| FCASTRLPPTPLLLFPEEEATNYR | 2.32 |
| FCASTRLPPTPLLLFPEEEATNQR | 3.09 |
| FCASTRLPPTPLLLFPEEEATNFR | 2 |
| FCASTRLPPTPLLLFPEEEATNSR | 2.94 |
| FCASTRLPPTPLLLFPEEEATNER | 3.33 |
| FCASTRLPPTPLLLFPEEEETNGR | 3.51 |
| FCASTRLPPTPLLLFPEEEMTNGR | 2.88 |
| FCASTRLPPTPLLLFPEEEKTNGR | 2.93 |
| FCASTRLPPTPLLLFPEEEPTNGR | 2.75 |
| FCASTRLPPTPLLLFPEEETTNGR | 2.97 |
| FCASTRLPPTPLLLFPEEEITNGR | 2.3 |
| FCASTRLPPTPLLLFPEEEWTNGR | 2.15 |
| FCASTRLPPTPLLLFPEEEHTNGR | 2.81 |
| FCASTRLPPTPLLLFPEEECTNGR | 2.38 |
| FCASTRLPPTPLLLFPEEESTNGR | 3.21 |
| FCASTRLPPTPLLLFPEEELTNGR | 2.72 |
| FCASTRLPPTPLLLFPEEENTNGR | 2.43 |

| Variant | protein stability index |
| --- | --- |
| FCASTRLPPTPLLLFPEEEGTNGR | 2.79 |
| FCASTRLPPTPLLLFPEEEQTNGR | 2.96 |
| FCASTRLPPTPLLLFPEEEFTNGR | 2.21 |
| FCASTRLPPTPLLLFPEEERTNGR | 2.77 |
| FCASTRLPPTPLLLFPEEEDTNGR | 3.12 |
| FCASTRLPPTPLLLFPEEEVTNGR | 2.7 |
| FCASTRLPPTPLLLFPEEEYTNGR | 2.48 |
| FCASTRLPPTPLLLFPEEEATTGR | 3.27 |
| FCASTRLPPTPLLLFPEEEATCGR | 2.32 |
| FCASTRLPPTPLLLFPEEEATFGR | 2.18 |
| FCASTRLPPTPLLLFPEEEATQGR | 3.18 |
| FCASTRLPPTPLLLFPEEEATLGR | 2.19 |
| FCASTRLPPTPLLLFPEEEATYGR | 2.82 |
| FCASTRLPPTPLLLFPEEEATMGR | 2.56 |
| FCASTRLPPTPLLLFPEEEATGGR | 2.16 |
| FCASTRLPPTPLLLFPEEEATKGR | 2.75 |
| FCASTRLPPTPLLLFPEEEATSGR | 2.5 |
| FCASTRLPPTPLLLFPEEEATHGR | 2.95 |
| FCASTRLPPTPLLLFPEEEATRGR | 2.73 |
| FCASTRLPPTPLLLFPEEEATIGR | 2.11 |
| FCASTRLPPTPLLLFPEEEATAGR | 2.87 |
| FCASTRLPPTPLLLFPEEEATDGR | 3.1 |
